Numbering of substitutions follows the chain as printed.
Columns and labels:
SgrAI wild type [1] = target: T1, SgrAI wild type (UniProt Q9F6L0 1-339); experiment: fluorescence anisotropy; 10 mM Ca2+; 20 mM Tris-HOAc pH 8.0 (RT), 50 mM KOAc, 10 mM Ca(OAc)2 (or Mg(OAc)2), 1 mM DTT, 4 C for anisotropy and gel run; 10% glycerol for EMSA and R131A/R134A, none for wild type with 40-mers; settings: protein: recombinant, tags: none (untagged wild type; a C-terminal 6xHis version was also made), chain copies: 2
T1 sequence: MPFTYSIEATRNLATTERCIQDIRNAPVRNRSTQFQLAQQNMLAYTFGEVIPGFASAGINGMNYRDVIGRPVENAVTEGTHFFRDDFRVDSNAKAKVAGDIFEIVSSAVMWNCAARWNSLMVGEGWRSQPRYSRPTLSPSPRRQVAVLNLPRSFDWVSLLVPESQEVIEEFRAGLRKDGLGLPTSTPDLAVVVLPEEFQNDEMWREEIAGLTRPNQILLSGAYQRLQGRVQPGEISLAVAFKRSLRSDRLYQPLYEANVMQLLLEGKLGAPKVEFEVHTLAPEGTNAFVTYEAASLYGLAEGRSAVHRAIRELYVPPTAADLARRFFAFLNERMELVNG

SgrAI wild type [2] = target: T1, SgrAI wild type; experiment: fluorescence anisotropy; 10 mM Mg2+; 20 mM Tris-HOAc pH 8.0 (RT), 50 mM KOAc, 10 mM Ca(OAc)2 (or Mg(OAc)2), 1 mM DTT, 4 C for anisotropy and gel run; 10% glycerol for EMSA and R131A/R134A, none for wild type with 40-mers; settings: protein: recombinant; tags: none (untagged wild type; a C-terminal 6xHis version was also made); chain copies: 2; label: 5' Hex (Methods)
SgrAI S56E = target: T2, SgrAI S56E (UniProt Q9F6L0 1-339, S56E); experiment: EMSA; 10 mM Ca2+; 20 mM Tris-HOAc pH 8.0 (RT), 50 mM KOAc, 10 mM Ca(OAc)2 (or Mg(OAc)2), 1 mM DTT, 4 C for anisotropy and gel run; 10% glycerol for EMSA and R131A/R134A, none for wild type with 40-mers; settings: protein: recombinant; chain copies: 2; label: 5' 32P (S56E, A57E) or 5' fluorescein on top strand (R131A, R134A)
T2 sequence: T1 sequence with S56E

SgrAI A57E = target: T3, SgrAI A57E (UniProt Q9F6L0 1-339, A57E); experiment: as above; settings: protein: recombinant; chain copies: 2; label: 5' 32P (S56E, A57E) or 5' fluorescein on top strand (R131A, R134A)
T3 sequence: T1 sequence with A57E

SgrAI R134A = target: T4, SgrAI R134A (UniProt Q9F6L0 1-339, R134A); experiment: fluorescence anisotropy; 10 mM Ca2+; 20 mM Tris-HOAc pH 8.0 (RT), 50 mM KOAc, 10 mM Ca(OAc)2 (or Mg(OAc)2), 1 mM DTT, 4 C for anisotropy and gel run; 10% glycerol for EMSA and R131A/R134A, none for wild type with 40-mers; settings: protein: recombinant; chain copies: 2; label: 5' 32P (S56E, A57E) or 5' fluorescein on top strand (R131A, R134A)
T4 sequence: T1 sequence with R134A

SgrAI R131A = target: T5, SgrAI R131A (UniProt Q9F6L0 1-339, R131A); experiment: as above; settings: protein: recombinant; chain copies: 2; label: 5' 32P (S56E, A57E) or 5' fluorescein on top strand (R131A, R134A)
T5 sequence: T1 sequence with R131A

[3] = label: 5' fluorescein on top strand

B1: 40-2A (dsDNA)
DNA 1: GATGCGTGGGTCTTCACACCGGGGGTCTGCTCAAAATGAG
DNA 2: CTCATTTTGAGCAGACCCCCGGTGTGAAGACCCACGCATC
Kd (SgrAI wild type [1]; [3]): 27 ± 2 nM

B2: 40-NCTA (40-NC-TA) (dsDNA)
DNA 1: B1 DNA 1 with A18T, G23A
DNA 2: B1 DNA 2 with C18T, T23A
Kd (SgrAI wild type [1]; label: 5' Hex (Methods)): 0.5 ± 0.1 nM | Kd (SgrAI wild type [2]): 2.8 ± 0.5 nM

B3: 40-2B (dsDNA)
DNA 1: B1 DNA 1 with G23T, G24C
DNA 2: B1 DNA 2 with C17G, C18A
Kd (SgrAI wild type [1]; [3]): 17 ± 3 nM

B4: PC DNA (dsDNA)
DNA 1: GATGCGTGGGTCTTCACA
DNA 2: CCGGTGTGAAGACCCACGCATC
Kd (SgrAI S56E): 0.26 ± 0.02 nM | Kd (SgrAI A57E): 5 ± 2 nM | Kd (SgrAI R134A): 13 ± 6 nM | Kd (SgrAI R131A): 60 ± 20 nM

— article PMC4399878, “Probing the Run-On Oligomer of Activated SgrAI Bound to DNA”
